Test results from US20220089702A1 (PROTHENA BIOSCIENCES, published 2022).
Ends that are not written are not given here.

T1: biotinylated tau peptide spanning amino acids 199-213 of SEQ ID NO:3 (human, also: biotinylated (position not given here))
T1 peptide: KSKIGSTENLKHQPG


Target: T1, biotinylated tau peptide spanning amino …
Assay: ELISA, biotinylated peptide on streptavidin plate
Excerpt: Overlapping biotinylated peptides spanning the length of the 4R0N isoform of tau (383 amino acids) were bound to wells of a streptavidin-coated ELISA plate. The plate was washed and blocked, and murine forms of antibodies 5G8, 6A10, 8A4, 7G6 and 3D6 were applied. After washing, a horseradish peroxidase-conjugated anti-mouse antibody was applied to the plate, followed by treatment with OPD (o-phenylenediamine dihydrochloride) to allow color development. The plate was read at 450 nm absorbance, with background from wells omitting primary antibody used as a blank subtraction. […] These peptides correspond to amino acids 257-271 and 315-329 in the full-length 4R2N human tau protein.

Row | binding result | Binder
1 | binds | mouse monoclonal antibody 5G8 (antibody, V domains shown, Hybridoma-produced mouse antibody; also called m5G8; murine 5G8) VH: EVQLQQSGAELVRSGASVRLSCTASGFNIKDYYMHWVRQRPEQGLEWIGWIDPENGDTVYAPKFQGKATMTSDTSSNTAYLHLSSLTSEDTAVYYCSPLDFWGQGTTLTVSS VL: not shown
2 | binds | mouse monoclonal antibody 8A4 (antibody, mouse IgG1, V domains shown, Mouse IgG1/kappa; also called m8A4; murine 8A4) VH: EVQLQQSGAELVRPGALVKLSCKASGFNIKDYYIHWVKQRPEQGLEWIGWIDPENGDTVYDPQFQDKANITADTSSNTAYLQLSSLTSEGTAVYYCSTLDFWGQGTTLTVSS VL: not shown
3 | binds | mouse monoclonal antibody 6A10 (antibody, mouse IgG1, V domains shown, Mouse IgG1/kappa; also called m6A10; murine 6A10) VH: EVQLQQSGAELVRSGASVKLSCTASGLNIKDYYIHWVKQRPEQGLEWIGWIDPENDDTEYAPKFQGRATLTTDTSSNTAYLQLSSLTSEDTAVYYCTPLDYWGQGTSVTVSS VL: not shown
